Data: patent publication US20110182887A1 (AstraZeneca / MedImmune, published 2011)

Legend:
[1] = target: T1, human CD22 (hCD22) expressed on the cell surface (human, UniProt P20273 20-847); test: BHK-CD22 cell ELISA, COS-7 supernatant
T1 construct: whole, on cells; One molecule is used for all cell-surface formats; also called human CD22 antigen; BHK-CD22

[2] = target: T1, human CD22 (hCD22) expressed on the …; test: competitive cell ELISA on CD22; increasing mouse HB22.7 mixed with 250 ng/ml chHB227 (competitor); mouse HB22.7 titrated against 250 ng/ml chimeric antibody
Protocol: To confirm the binding effectiveness of the RHF+RKC humanized antibody, a competitive ELISA was performed with increasing amounts of the mouse HB22.7 antibody mixed with 250 ng/ml of chimeric or humanized antibody.

[3] = target: T1, human CD22 (hCD22) expressed on the …; test: flow cytometry on CHO cells transfected with human CD22, labelled secondary antibody, median fluorescence intensity
Protocol: CHO cells expressing hCD22 were prepared by transfection with a plasmid encoding human CD22 using the Lipofectamine procedure. […] Cells were incubated on ice for 20 minutes then washed and resuspended in PBS followed by addition of secondary antibody, either a goat anti-human (GAH) or GAM-F(ab)′2 anti human-RPE at a 1:1000 dilution. Cells were incubated on ice for an additional 10 minutes and binding activity was evaluated via FACS analysis on a Guava flow cytometer.

[4] = target: T1, human CD22 (hCD22) expressed on the …; test: cell ELISA on BHK cells expressing human CD22, goat anti-mouse Ig-HRP, OD 450 nm
Excerpt: The BHK-CD22 binding assay was used to test the binding activity of the chHB227 antibody in the transiently transformed COS 7 culture supernatants. A goat anti-human Ig-HRP conjugate (Sigma Chemicals) was used to detect binding of chHB22.7 mAb while a goat anti-mouse Ig-HRP conjugate (Southern Biotechnology) was used to detect binding of the parental mouse HB22.7 mAb. The bound HRP conjugates were exposed to the substrate o-phenyldiamine (OPD) and the resulting products detected at 450 nm.

[5] = target: hCD22 (ligand immobilised on the BIAcore CM5 sensor chip) (human, UniProt P20273 20-687, limits assumed); test: SPR (BIAcore 3000), hCD22 immobilised on CM5 chip, IgG injected, 1:1 model
Protocol: Binding affinity of HB22.7 and RHOv2ACD/RKA were determined on a BIAcore 3000 instrument (BIAcore, Inc., Uppsala, Sweden). The ligand, hCD22, was prepared at 50 nM in 10 mM NaOAc, pH4 buffer. It was injected onto an EDC/NHS-activated CM5 sensor chip (BIAcore, Inc. Uppsala, Sweden) using a standard immobilization protocol. Following this, any unreacted active ester moieties were quenched using 1M Et-NH2 (ethanolamine; coupling reagents purchased from BIAcore, Inc.). A total of 535 and 689 RUs hCD22 remained bound to two sensor chip surfaces used in these experiments. Separately, a blank surface was prepared on each sensor chip using the identical protocol (minus protein). The blank surfaces were used as a reference cell in the experiments, and served to correct for both non-specific binding and some housekeeping artifacts.
For the kinetic experiments, HB22.7 and RHOv2ACD/RKA were prepared as two dilution series, starting at 22 nM and 100 nM, then diluted three- and two-fold, respectively, down to final concentrations of 0.03 nM and 0.39 nM in HBS-EP buffer (BIAcore, Inc., consisting of the following: 10 mM HEPES buffer, pH7.4, 150 mM NaCl, 3 mM EDTA, and 0.005% P20). Each concentration of IgG was then injected over both the CD22 and reference cell surfaces, which are connected in series. Between injections, surfaces were regenerated with a 1-minute injection of 3M MgCl2.

| fold better binding than HB227RHB with the same chimeric light chain [1] | IC50 [2] | EC50 (read off the curve) [3] | EC50 (read off the curve) [4] | Kd [5] | koff [5] | kon [5] | Binder |
| --- | --- | --- | --- | --- | --- | --- | --- |
| ~2 fold |  |  |  |  |  |  | HB227RHC heavy chain + chimeric HB22.7 light chain (chL) (antibody, human IgG1, V domains shown, Human IgG1 kappa, COS-7 supernatant; The VH entry may include the leader; also called RHC+chL) VH: QVQLQESGPALVKPTQTLTLTCTFSGFSLSDYGVNWIRQPPGKALEWLGIIWGDGRTDYNSALKSRLSISKDNSKNQVVLRMTNVDPVDTATYFCARAPGNRAMEYWGQGTVVTVSS VL: SIVMTQTPKFLLVSAGDRITLTCKASQSVTNDVAWYQQKPGQSPKLLIYYASNRYTGVPDRFTGSGYGTDFTFTISTVQAEDLAVYFCQQDYRSPWTFGGGTKLEI |
|  | ~4 µg/mL | ~0.2 ug mAb per 10e6 cells | ~0.09 µg/mL | 14 nM | 0.00017 s⁻¹ | 12000 M⁻¹ s⁻¹ | parental mouse monoclonal anti-CD22 antibody HB22.7 (antibody, V domains shown, Mouse antibody from hybridoma ATCC HB11347; It was labelled with Alexa-fluor in some cell assays; also called mouse HB22.7; murine HB22.7) VH: QVQLKESGPGLVAPSQSLSITCTVSGFSLSDYGVNWVRQIPGKGLEWLGIIWGDGRTDYNSALKSRLNISKDNSKSQVFLKMNSLKADDTARYYCARAPGNRAMEYWGQGTSVTVS VL: SIVMTQTPKFLLVSAGDRITLTCKASQSVTNDVAWYQQKPGQSPKLLIYYASNRYTGVPDRFTGSGYGTDFTFTISTVQAEDLAVYFCQQDYRSPWTFGGGTKLEI |
